Measured values from paper PMC8553545.

Molecular target: ZBTB7A ZF1-4 (370-500) pXC2222 (Homo sapiens, UniProt O95365 370-500)
Assay: X-ray crystallography

ZBTB7A ZF1-4 (370-500) pXC2222, sequence (O95365 370-500): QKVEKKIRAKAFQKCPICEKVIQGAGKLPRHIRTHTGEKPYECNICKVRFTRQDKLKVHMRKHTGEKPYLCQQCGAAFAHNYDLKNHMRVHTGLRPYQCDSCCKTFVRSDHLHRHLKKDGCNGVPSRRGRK

Binder	binding result
7N5S oligo (dsDNA) DNA 1: GGGGCCCCTTCCCCA DNA 2: CTGGGGAAGGGGCCC	binds
7N5T oligo (dsDNA) DNA 1: AGGCCCCTTCCCCAC DNA 2: TGTGGGGAAGGGGCC	binds
